The results in this text go back to patent US20170088600A1 (published 2017).

What all share (test): SPR
Assay [1] addresses T1, TRAIL-R2-Fc M152A/R154A/K155A (human, UniProt O14763 58-184).
T1 chain: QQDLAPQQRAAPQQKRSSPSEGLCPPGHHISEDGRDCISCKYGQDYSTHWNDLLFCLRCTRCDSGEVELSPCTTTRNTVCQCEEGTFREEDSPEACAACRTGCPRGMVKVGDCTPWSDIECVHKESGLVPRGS

Assay [2] concerns the target UL141.
The target in assay [3] is UL141. This is another data set of the same source.
Assay [4] deals with UL141. The source holds these as a separate data set.
The target of assay [5] is UL141. The source holds these as a separate data set.

Where two headings read alike, the source gives them in different places.

B1: TRAIL (TNFSF10) ectodomain (ligand)
chain: TNELKQMQDKYSKSGIACFLKEDDSYWDPNDEESMNSPCWQVKWQLRQLVRKMILRTSEETISTVQEKQQNISPLVRERGPQRVAAHITGTRGRSNTLSSPNSKNEKALGRKINSWESSRSGHSFLSNLHLRNGELVIHEKGFYYIYSQTYFRFQEEIKENTKNDKQMVQYIYKYTSYPDPILLMKSARNSCWSKDAEYGLYSIYQGGIFELKENDRIFVSVTNEHLIDMDHEASFFGAFLVG
As usually defined, the Kd is a measure of binding affinity in units of concentration. B1 came in with a dissociation constant Kd in assay [1] of 7 nM.

B2: TRAIL-R2-Fc F112A (Fc fusion)
chain: QQDLAPQQRAAPQQKRSSPSEGLCPPGHHISEDGRDCISCKYGQDYSTHWNDLLACLRCTRCDSGEVELSPCTTTRNTVCQCEEGTFREEDSPEMCRKCRTGCPRGMVKVGDCTPWSDIECVHKESGLVPRGS
In the assay with UL141 [2], B2 gave a Kd of 630 nM.

B3: TRAIL-R2-Fc M152A (Fc fusion)
chain: QQDLAPQQRAAPQQKRSSPSEGLCPPGHHISEDGRDCISCKYGQDYSTHWNDLLFCLRCTRCDSGEVELSPCTTTRNTVCQCEEGTFREEDSPEACRKCRTGCPRGMVKVGDCTPWSDIECVHKESGLVPRGS
As for B3, the Kd in the assay with UL141 [3] came out at 7 nM.

B4: TRAIL-R2-Fc L110A/L114A (Fc fusion)
chain: QQDLAPQQRAAPQQKRSSPSEGLCPPGHHISEDGRDCISCKYGQDYSTHWNDALFCARCTRCDSGEVELSPCTTTRNTVCQCEEGTFREEDSPEMCRKCRTGCPRGMVKVGDCTPWSDIECVHKESGLVPRGS
Regarding B4, binding with UL141 [2] was put at a Kd of 43 nM.

B5: TRAIL-R2-Fc R154A (Fc fusion)
chain: QQDLAPQQRAAPQQKRSSPSEGLCPPGHHISEDGRDCISCKYGQDYSTHWNDLLFCLRCTRCDSGEVELSPCTTTRNTVCQCEEGTFREEDSPEMCAKCRTGCPRGMVKVGDCTPWSDIECVHKESGLVPRGS
Turning to B5, in the assay with UL141 [3], the Kd is 6 nM.

B6: TRAIL-R2-Fc E78A/D109A (Fc fusion)
chain: QQDLAPQQRAAPQQKRSSPSAGLCPPGHHISEDGRDCISCKYGQDYSTHWNALLFCLRCTRCDSGEVELSPCTTTRNTVCQCEEGTFREEDSPEMCRKCRTGCPRGMVKVGDCTPWSDIECVHKESGLVPRGS
For the molecule B6, in the assay with UL141 [4], the Kd came to 60 nM.

B7: TRAIL-R2-Fc (human TRAIL-R2 aa 58-184, thrombin site, human IgG1 Fc), wild type (Fc fusion)
chain: QQDLAPQQRAAPQQKRSSPSEGLCPPGHHISEDGRDCISCKYGQDYSTHWNDLLFCLRCTRCDSGEVELSPCTTTRNTVCQCEEGTFREEDSPEMCRKCRTGCPRGMVKVGDCTPWSDIECVHKESGLVPRGS
As for B7, the Kd in the assay with UL141 [2] came to 6 nM; with UL141 [5] it was 5.96 nM.

B8: TRAIL-R2-Fc V167A (Fc fusion)
chain: QQDLAPQQRAAPQQKRSSPSEGLCPPGHHISEDGRDCISCKYGQDYSTHWNDLLFCLRCTRCDSGEVELSPCTTTRNTVCQCEEGTFREEDSPEMCRKCRTGCPRGMVKAGDCTPWSDIECVHKESGLVPRGS
Regarding B8, in the assay with UL141 [2], the Kd is 15 nM.

B9: TRAIL-R2-Fc P150A (Fc fusion)
chain: QQDLAPQQRAAPQQKRSSPSEGLCPPGHHISEDGRDCISCKYGQDYSTHWNDLLFCLRCTRCDSGEVELSPCTTTRNTVCQCEEGTFREEDSAEMCRKCRTGCPRGMVKVGDCTPWSDIECVHKESGLVPRGS
The molecule B9 registered a Kd with UL141 [2] of 8 nM.

B10: TRAIL-R2-Fc K155A (Fc fusion)
chain: QQDLAPQQRAAPQQKRSSPSEGLCPPGHHISEDGRDCISCKYGQDYSTHWNDLLFCLRCTRCDSGEVELSPCTTTRNTVCQCEEGTFREEDSPEMCRACRTGCPRGMVKVGDCTPWSDIECVHKESGLVPRGS
In the assay with UL141 [3], B10 showed a Kd of 8 nM.

B11: TRAIL-R2-Fc D148A (Fc fusion)
chain: QQDLAPQQRAAPQQKRSSPSEGLCPPGHHISEDGRDCISCKYGQDYSTHWNDLLFCLRCTRCDSGEVELSPCTTTRNTVCQCEEGTFREEASPEMCRKCRTGCPRGMVKVGDCTPWSDIECVHKESGLVPRGS
For the molecule B11, the Kd in the assay with UL141 [2] turned out to be 55 nM.
